The supplement of paper PMC10724198
± gives the standard deviation of the averaged measurements.

Test system: Saccharomyces cerevisiae
Experiment: protein stability index of tFT-peptide fusion (C-terminal peptide) (PSI (0-1 scale)); higher = more stable (slower turnover)
Details: genetic background: cdc53-1; temperature: 37 C
Procedure: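 MPS profiling in S. cerevisiae of the tFT-X12 degron library: putative degron peptides plus stable controls, 12 aa, fused to the C-terminus of a sfGFP-mCherry timer. Cells are FACS-sorted into 8 mCherry/sfGFP bins and deep-sequenced. PSI runs from 0 (unstable) to 1 (stable). Backgrounds are wild type, das1Δ and doa10Δ at 30 °C, and wild type, das1Δ, cdc34-1 and cdc53-1 at 37 °C; 2-3 technical replicates each.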
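Further: PSI is a weighted mean of sequencing reads over stability bins, variants kept only with over 10 reads, mCherry proximal and sfGFP distal, peptide attached via GGGS linker.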

Question: With APLSPLLPPFLC as the sequence, how does the protein stability index read?
Answer: 0.729 ± 0.012

Question: For APPPLFLIVLHL, which protein stability index is on record?
Answer: 0.565 ± 0.0062

Question: How did the protein stability index turn out when APTMAIIVVHVR was run?
Answer: 0.291 ± 0.013

Question: Which protein stability index does the source give for ARKIGKVIPKLG here?
Answer: 0.732 ± 0.037

Question: How did the protein stability index turn out when ASLSSSRPPLLP was run?
Answer: 0.752 ± 0.02

Question: For ASLVGGVLLVVV, which protein stability index is on record?
Answer: 0.5 ± 0.012

Question: With AWPGRLWYFWLA as the sequence, how does the protein stability index read?
Answer: 0.7846 ± 0.0056

Question: With AYCGGRNKCTTE as the sequence, how does the protein stability index read?
Answer: 0.711 ± 0.021

Question: With AYVAPRRALMCS as the sequence, how does the protein stability index read?
Answer: 0.495 ± 0.019

Question: CEERVKSRLKQN was tested. Which protein stability index did it give?
Answer: 0.68 ± 0.013

Question: CFCLFVFFISSC was tested. Which protein stability index did it give?
Answer: 0.414 ± 0.015

Question: Which protein stability index does the source give for CFCSFQFVRLWV here?
Answer: 0.6165 ± 0.0048

Question: CFFFPCFSFRFL was tested. Which protein stability index did it give?
Answer: 0.448 ± 0.012

Question: CFFICGVFVFLM was tested. Which protein stability index did it give?
Answer: 0.338 ± 0.029

Question: With CFFILSLMVVVI as the sequence, how does the protein stability index read?
Answer: 0.16 ± 0.027

Question: How did the protein stability index turn out when CFFLSFNVFRLF was run?
Answer: 0.559 ± 0.011

Question: With CFVISVLFFFVG as the sequence, how does the protein stability index read?
Answer: 0.491 ± 0.035

Question: For CFVLVVCIPVMV, which protein stability index is on record?
Answer: 0.247 ± 0.033

Question: With CFVQVGGLVKIS as the sequence, how does the protein stability index read?
Answer: 0.725 ± 0.042

Question: How did the protein stability index turn out when CFVSFLHLLYFS was run?
Answer: 0.341 ± 0.025

Question: How did the protein stability index turn out when CGFVCGLCLCRV was run?
Answer: 0.586 ± 0.016

Question: How did the protein stability index turn out when CGFVFFVLVVFW was run?
Answer: 0.17 ± 0.0063

Question: CGQIAFLGIAVK was tested. Which protein stability index did it give?
Answer: 0.504 ± 0.043

Question: How did the protein stability index turn out when CGWFVSVGWRLG was run?
Answer: 0.67 ± 0.037

Question: How did the protein stability index turn out when CHFLLHYVFLLS was run?
Answer: 0.456 ± 0.0076

Question: How did the protein stability index turn out when CHPIPLARLAPT was run?
Answer: 0.745 ± 0.032

Question: For CKKATILRIKSM, which protein stability index is on record?
Answer: 0.715 ± 0.051

Question: How did the protein stability index turn out when CLCYFLFYFLFV was run?
Answer: 0.513 ± 0.026

Question: CLEHLVYCRLAS was tested. Which protein stability index did it give?
Answer: 0.624 ± 0.06

Question: For CLHFLTWVRICS, which protein stability index is on record?
Answer: 0.4701 ± 0.0029

Question: For CLNPCVRWDGHV, which protein stability index is on record?
Answer: 0.7589 ± 0.0016

Question: For CMAWLSVLKTLF, which protein stability index is on record?
Answer: 0.744 ± 0.023

Question: How did the protein stability index turn out when CRQDWMCFVYLS was run?
Answer: 0.0406 ± 0.0042

Question: CVFAYSPVALRC was tested. Which protein stability index did it give?
Answer: 0.534 ± 0.014

Question: Which protein stability index does the source give for CVFGFACRVLVV here?
Answer: 0.32639 ± 4.3e-05

Question: CYKYTYVKNNMI was tested. Which protein stability index did it give?
Answer: 0.7646 ± 0.0044

Question: CYRRCQAFLVLV was tested. Which protein stability index did it give?
Answer: 0.397 ± 0.015

Question: DFVFFLVSVRFR was tested. Which protein stability index did it give?
Answer: 0.216 ± 0.059

Question: With DGSFCLLYMTIA as the sequence, how does the protein stability index read?
Answer: 0.5745 ± 0.002

Question: DGYLFKGIWFFV was tested. Which protein stability index did it give?
Answer: 0.7326 ± 0.0039

Question: DKVTLLRRCKQY was tested. Which protein stability index did it give?
Answer: 0.726 ± 0.009

Question: With DLRGLGRFRISH as the sequence, how does the protein stability index read?
Answer: 0.741 ± 0.021

Question: For DLVGRETRMRLN, which protein stability index is on record?
Answer: 0.70449 ± 0.00037

Question: DPTLLLYPLSPL was tested. Which protein stability index did it give?
Answer: 0.765 ± 0.0076

Question: For DVVRWQRVRNYV, which protein stability index is on record?
Answer: 0.7218 ± 0.0072

Question: EGGGGRFWVCVG was tested. Which protein stability index did it give?
Answer: 0.732 ± 0.012

Question: How did the protein stability index turn out when EKHRRYAITKFI was run?
Answer: 0.694 ± 0.052

Question: Which protein stability index does the source give for EKKNQTAYNKTV here?
Answer: 0.71 ± 0.023

Question: Which protein stability index does the source give for EKTKTKRERKIN here?
Answer: 0.696 ± 0.008

Question: With ELNERRKRLVTN as the sequence, how does the protein stability index read?
Answer: 0.737 ± 0.01

Question: ERNERKYKIKIT was tested. Which protein stability index did it give?
Answer: 0.724 ± 0.035

Question: Which protein stability index does the source give for ESCFGMAIFCVT here?
Answer: 0.571 ± 0.011

Question: For ESCIFLMWLTVL, which protein stability index is on record?
Answer: 0.273 ± 0.024

Question: Which protein stability index does the source give for ESFIKFALYIVN here?
Answer: 0.604 ± 0.0067

Question: For EVVFHVFLVGLV, which protein stability index is on record?
Answer: 0.451 ± 0.015

Question: With FALPPSLLLLSA as the sequence, how does the protein stability index read?
Answer: 0.557 ± 0.013

Question: For FCCLIGYIWYGW, which protein stability index is on record?
Answer: 0.5083 ± 0.00082

Question: How did the protein stability index turn out when FCFLLLSWAFWV was run?
Answer: 0.205 ± 0.0084

Question: For FCFVRGLLFLFF, which protein stability index is on record?
Answer: 0.574 ± 0.065

Question: With FCIYLCLSTSIT as the sequence, how does the protein stability index read?
Answer: 0.221 ± 0.0083
